Experimental data: FireProtDB (doi:10.1016/j.bpc.2008.09.020)

B1: Cytochrome c-551, P00099 (parent)
chain: MKPYALLSLLATGTLLAQGAWAEDPEVLFKNKGCVACHAIDTKMVGPAYKDVAAKFAGQAGAEAELAQRIKNGSQGVWGPIPMPPNAVSDDEAQTLAKWVLSQK

Variants of: B1
Settings: Pseudomonas aeruginosa (strain ATCC 15692 / DSM 22644 / CIP 104116 / JCM 14847 / LMG 12228 / 1C / PRS 101 / PAO1), 25 °C, GdnHCl, CD, Sodium acetate 20 mM, structure 451C, whole UniProt chain shown

Row | Variant | ddG of mutation (higher = less stable) (pH 3.6) | denaturant m value (pH 3.6) | denaturant midpoint (higher = more stable) (pH 3.6) | unfolding free energy (pH 3.6) | ddG of mutation (higher = less stable) (pH 5) | denaturant m value (pH 5) | denaturant midpoint (higher = more stable) (pH 5) | unfolding free energy (pH 5)
1 | MKPYALLSLLATGTLLAQGAWAEDPEVLAKNKGCMACHAIDTKMVGPAYKDVAAKYAGQAGAEAYLAQRIKNGSQGVWGPIPMPPNAVSDDEAQTLAKWILSQK [F29A V35M F56Y E65Y V100I] | -3.34 kcal/mol | 2.54 kcal/mol/M | 2.95 M | 7.48 kcal/mol | -4.78 kcal/mol | 2.44 kcal/mol/M | 4.2 M | 10.2 kcal/mol
2 | MKPYALLSLLATGTLLAQGAWAEDPEVLAKNKGCMACHAIDTKMVGPAYKDVAAKYAGQAGAEAYLAQRIKNGSQGVWGPIPMPPNAVSDDEAQTLAKWVLSQK [F29A V35M F56Y E65Y] | -2.39 kcal/mol | 2.52 kcal/mol/M | 2.59 M | 6.52 kcal/mol | -3.76 kcal/mol | 2.43 kcal/mol/M | 3.78 M | 9.21 kcal/mol
3 | MKPYALLSLLATGTLLAQGAWAEDPEVLFKNKGCVACHAIDTKMVGPAYKDVAAKYAGQAGAEAYLAQRIKNGSQGVWGPIPMPPNAVSDDEAQTLAKWILSQK [F56Y E65Y V100I] | -1.63 kcal/mol | 2.57 kcal/mol/M | 2.25 M | 5.77 kcal/mol | -2.95 kcal/mol | 2.44 kcal/mol/M | 3.44 M | 8.39 kcal/mol
4 | MKPYALLSLLATGTLLAQGAWAEDPEVLAKNKGCMACHAIDTKMVGPAYKDVAAKFAGQAGAEAELAQRIKNGSQGVWGPIPMPPNAVSDDEAQTLAKWILSQK [F29A V35M V100I] | -1.9 kcal/mol | 2.45 kcal/mol/M | 2.46 M | 6.04 kcal/mol | -2.29 kcal/mol | 2.47 kcal/mol/M | 3.13 M | 7.74 kcal/mol
5 | MKPYALLSLLATGTLLAQGAWAEDPEVLFKNKGCVACHAIDTKMVGPAYKDVAAKYAGQAGAEAYLAQRIKNGSQGVWGPIPMPPNAVSDDEAQTLAKWVLSQK [F56Y E65Y] | -0.72 kcal/mol | 2.7 kcal/mol/M | 1.8 M | 4.85 kcal/mol | -2.27 kcal/mol | 2.68 kcal/mol/M | 2.88 M | 7.71 kcal/mol
6 | MKPYALLSLLATGTLLAQGAWAEDPEVLFKNKGCVACHAIDTKMVGPAYKDVAAKFAGQAGAEAYLAQRIKNGSQGVWGPIPMPPNAVSDDEAQTLAKWVLSQK [E65Y] | -0.09 kcal/mol | 2.88 kcal/mol/M | 1.46 M | 4.23 kcal/mol | -1.13 kcal/mol | 3.1 kcal/mol/M | 2.12 M | 6.57 kcal/mol
7 | MKPYALLSLLATGTLLAQGAWAEDPEVLFKNKGCVACHAIDTKMVGPAYKDVAAKYAGQAGAEAELAQRIKNGSQGVWGPIPMPPNAVSDDEAQTLAKWVLSQK [F56Y] | -0.28 kcal/mol | 2.76 kcal/mol/M | 1.6 M | 4.41 kcal/mol | -1.33 kcal/mol | 2.67 kcal/mol/M | 2.54 M | 6.78 kcal/mol
8 | MKPYALLSLLATGTLLAQGAWAEDPEVLAKNKGCMACHAIDTKMVGPAYKDVAAKFAGQAGAEAELAQRIKNGSQGVWGPIPMPPNAVSDDEAQTLAKWVLSQK [F29A V35M] | -1.45 kcal/mol | 2.56 kcal/mol/M | 2.18 M | 5.58 kcal/mol | -1.92 kcal/mol | 2.57 kcal/mol/M | 2.87 M | 7.37 kcal/mol
9 | MKPYALLSLLATGTLLAQGAWAEDPEVLFKNKGCVACHAIDTKMVGPAYKDVAAKFAGQAGAEAELAQRIKNGSQGVWGPIPMPPNAVSDDEAQTLAKWILSQK [V100I] | -1.05 kcal/mol | 2.74 kcal/mol/M | 1.89 M | 5.18 kcal/mol | -1.49 kcal/mol | 2.74 kcal/mol/M | 2.53 M | 6.93 kcal/mol
